Drawing on paper PMC2736567, this text covers Elk1 trans-reporter after EGF in HEK-293T expressing hPIV3-C without a tag for one substance.

The target in this test is endogenous GRB2 (human (endogenous in HEK-293T)) (UniProt P62993).
Chain of UniProt P62993 (P62993 whole entry): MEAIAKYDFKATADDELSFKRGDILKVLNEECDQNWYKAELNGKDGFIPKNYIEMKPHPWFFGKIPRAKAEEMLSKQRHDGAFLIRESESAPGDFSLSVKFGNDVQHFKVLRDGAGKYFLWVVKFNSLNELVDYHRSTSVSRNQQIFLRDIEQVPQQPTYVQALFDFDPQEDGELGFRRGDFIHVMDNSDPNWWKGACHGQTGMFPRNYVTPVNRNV

As for “GST-tagged hPIV3-C (full-length) (from UniProt P06165 1-199) (natural protein)”, the Elk1 trans-reporter after EGF in HEK-293T expressing hPIV3-C without a tag amounted to 14 fold.
